B1: SI-95X23 (antibody)
chain 1: not shown
chain 2: DVQLQESGPSLVKPSQSLSLTCTVTGYSITSDFAWNWIRQFPGNKLEWMGYISYSGNTRYNPSLKSRISITRDTSKNQFFLQLNSVTIEDTATYYCVTAGRGFPYWGQGTLVTVSAGGGGSGGGGSGGGGSDILMTQSPSSMSVSLGDTVSITCHSSQDINSNIGWLQQRPGKSFKGLIYHGTNLDDEVPSRFSGSGSGADYSLTISSLESEDFADYYCVQYAQFPWTFGGGTKLEIKSGSGSGGGGGSGGGGSGGGGSDIQMTQSPSSLSASVGDRVTITCRSSQNIVHSNGNTYLDWYQQTPGKAPKLLIYKVSNRFSGVPSRFSGSGSGTDFTFTISSLQPEDIATYYCFQYSHVPWTFGQGTKLQITRTVAAPSVFIFPPSDEQLKSGTASVVCLLNNFYPREAKVQWKVDNALQSGNSQESVTEQDSKDSTYSLSSTLTLSKADYEKHKVYACEVTHQGLSSPVTKSFNRGEC
B2: SI-95X26 (antibody)
chain 1: not shown
chain 2: DILMTQSPSSMSVSLGDTVSITCHSSQDINSNIGWLQQRPGKSFKGLIYHGTNLDDEVPSRFSGSGSGADYSLTISSLESEDFADYYCVQYAQFPWTFGGGTKLEIKGGGGSGGGGSGGGGSDVQLQESGPSLVKPSQSLSLTCTVTGYSITSDFAWNWIRQFPGNKLEWMGYISYSGNTRYNPSLKSRISITRDTSKNQFFLQLNSVTIEDTATYYCVTAGRGFPYWGQGTLVTVSASGSGSGGGGGSGGGGSGGGGSDIQMTQSPSSLSASVGDRVTITCRSSQNIVHSNGNTYLDWYQQTPGKAPKLLIYKVSNRFSGVPSRFSGSGSGTDFTFTISSLQPEDIATYYCFQYSHVPWTFGQGTKLQITRTVAAPSVFIFPPSDEQLKSGTASVVCLLNNFYPREAKVQWKVDNALQSGNSQESVTEQDSKDSTYSLSSTLTLSKADYEKHKVYACEVTHQGLSSPVTKSFNRGEC
B3: SI-95X28 (antibody)
chain 1: not shown
chain 2: DILMTQSPSSMSVSLGDTVSITCHSSQDINSNIGWLQQRPGKSFKGLIYHGTNLDDEVPSRFSGSGSGADYSLTISSLESEDFADYYCVQYAQFPWTFGGGTKLEIKGGGGSGGGGSGGGGSDVQLQESGPSLVKPSQSLSLTCTVTGYSITSDFAWNWIRQFPGNKLEWMGYISYSGNTRYNPSLKSRISITRDTSKNQFFLQLNSVTIEDTATYYCVTAGRGFPYWGQGTLVTVSAGGGGSGGGGSGSGSGGGGGSGGGGSGGGGSDIQMTQSPSSLSASVGDRVTITCRSSQNIVHSNGNTYLDWYQQTPGKAPKLLIYKVSNRFSGVPSRFSGSGSGTDFTFTISSLQPEDIATYYCFQYSHVPWTFGQGTKLQITRTVAAPSVFIFPPSDEQLKSGTASVVCLLNNFYPREAKVQWKVDNALQSGNSQESVTEQDSKDSTYSLSSTLTLSKADYEKHKVYACEVTHQGLSSPVTKSFNRGEC
B4: SI-95X18 (antibody)
chain 1: not shown
chain 2: DIQMTQSPSSLSASVGDRVTITCRSSQNIVHSNGNTYLDWYQQTPGKAPKLLIYKVSNRFSGVPSRFSGSGSGTDFTFTISSLQPEDIATYYCFQYSHVPWTFGQGTKLQITRTVAAPSVFIFPPSDEQLKSGTASVVCLLNNFYPREAKVQWKVDNALQSGNSQESVTEQDSKDSTYSLSSTLTLSKADYEKHKVYACEVTHQGLSSPVTKSFNRGEC
B5: SI-95X20 (antibody)
chain 1: not shown
chain 2: B4 chain 2
B6: SI-95X21 (antibody)
chain 1: not shown
chain 2: B4 chain 2
B7: SI-95X25 (antibody)
chain 1: not shown
chain 2: DVQLQESGPSLVKPSQSLSLTCTVTGYSITSDFAWNWIRQFPGNKLEWMGYISYSGNTRYNPSLKSRISITRDTSKNQFFLQLNSVTIEDTATYYCVTAGRGFPYWGQGTLVTVSAGGGGSGGGGSGGGGSDILMTQSPSSMSVSLGDTVSITCHSSQDINSNIGWLQQRPGKSFKGLIYHGTNLDDEVPSRFSGSGSGADYSLTISSLESEDFADYYCVQYAQFPWTFGGGTKLEIKGGGGSGGGGSGSGSGGGGGSGGGGSGGGGSDIQMTQSPSSLSASVGDRVTITCRSSQNIVHSNGNTYLDWYQQTPGKAPKLLIYKVSNRFSGVPSRFSGSGSGTDFTFTISSLQPEDIATYYCFQYSHVPWTFGQGTKLQITRTVAAPSVFIFPPSDEQLKSGTASVVCLLNNFYPREAKVQWKVDNALQSGNSQESVTEQDSKDSTYSLSSTLTLSKADYEKHKVYACEVTHQGLSSPVTKSFNRGEC
B8: SI-95X3 (antibody)
chain 1: not shown
chain 2: DILMTQSPSSMSVSLGDTVSITCHSSQDINSNIGWLQQRPGKSFKGLIYHGTNLDDEVPSRFSGSGSGADYSLTISSLESEDFADYYCVQYAQFPWTFGGGTKLEIKRTVAAPSVFIFPPSDEQLKSGTASVVCLLNNFYPREAKVQWKVDNALQSGNSQESVTEQDSKDSTYSLSSTLTLSKADYEKHKVYACEVTHQGLSSPVTKSFNRGEC
B9: SI-95X35 (antibody)
chain 1: not shown
chain 2: B8 chain 2
B10: SI-95X31 (antibody)
chain 1: not shown
chain 2: DIQMTQSPSSLSASVGDRVTITCRSSQNIVHSNGNTYLDWYQQTPGKAPKLLIYKVSNRFSGVPSRFSGSGSGTDFTFTISSLQPEDIATYYCFQYSHVPWTFGQGTKLQITRTVAAPSVFIFPPSDEQLKSGTASVVCLLNNFYPREAKVQWKVDNALQSGNSQESVTEQDSKDSTYSLSSTLTLSKADYEKHKVYACEVTHQGLSSPVTKSFNRGECGGGGSGGGGSGSGSGGGGGSGGGGSGGGGSDVQLQESGPSLVKPSQSLSLTCTVTGYSITSDFAWNWIRQFPGNKLEWMGYISYSGNTRYNPSLKSRISITRDTSKNQFFLQLNSVTIEDTATYYCVTAGRGFPYWGQGTLVTVSAGGGGSGGGGSGGGGSDILMTQSPSSMSVSLGDTVSITCHSSQDINSNIGWLQQRPGKSFKGLIYHGTNLDDEVPSRFSGSGSGADYSLTISSLESEDFADYYCVQYAQFPWTFGGGTKLEIK
B11: SI-95X27 (antibody)
chain 1: not shown
chain 2: DILMTQSPSSMSVSLGDTVSITCHSSQDINSNIGWLQQRPGKSFKGLIYHGTNLDDEVPSRFSGSGSGADYSLTISSLESEDFADYYCVQYAQFPWTFGGGTKLEIKGGGGSGGGGSGGGGSDVQLQESGPSLVKPSQSLSLTCTVTGYSITSDFAWNWIRQFPGNKLEWMGYISYSGNTRYNPSLKSRISITRDTSKNQFFLQLNSVTIEDTATYYCVTAGRGFPYWGQGTLVTVSAGGGGSGSGSGGGGGSGGGGSGGGGSDIQMTQSPSSLSASVGDRVTITCRSSQNIVHSNGNTYLDWYQQTPGKAPKLLIYKVSNRFSGVPSRFSGSGSGTDFTFTISSLQPEDIATYYCFQYSHVPWTFGQGTKLQITRTVAAPSVFIFPPSDEQLKSGTASVVCLLNNFYPREAKVQWKVDNALQSGNSQESVTEQDSKDSTYSLSSTLTLSKADYEKHKVYACEVTHQGLSSPVTKSFNRGEC
B12: SI-95X24 (antibody)
chain 1: not shown
chain 2: DVQLQESGPSLVKPSQSLSLTCTVTGYSITSDFAWNWIRQFPGNKLEWMGYISYSGNTRYNPSLKSRISITRDTSKNQFFLQLNSVTIEDTATYYCVTAGRGFPYWGQGTLVTVSAGGGGSGGGGSGGGGSDILMTQSPSSMSVSLGDTVSITCHSSQDINSNIGWLQQRPGKSFKGLIYHGTNLDDEVPSRFSGSGSGADYSLTISSLESEDFADYYCVQYAQFPWTFGGGTKLEIKGGGGSGSGSGGGGGSGGGGSGGGGSDIQMTQSPSSLSASVGDRVTITCRSSQNIVHSNGNTYLDWYQQTPGKAPKLLIYKVSNRFSGVPSRFSGSGSGTDFTFTISSLQPEDIATYYCFQYSHVPWTFGQGTKLQITRTVAAPSVFIFPPSDEQLKSGTASVVCLLNNFYPREAKVQWKVDNALQSGNSQESVTEQDSKDSTYSLSSTLTLSKADYEKHKVYACEVTHQGLSSPVTKSFNRGEC
B13: SI-95X29 (antibody)
chain 1: not shown
chain 2: DIQMTQSPSSLSASVGDRVTITCRSSQNIVHSNGNTYLDWYQQTPGKAPKLLIYKVSNRFSGVPSRFSGSGSGTDFTFTISSLQPEDIATYYCFQYSHVPWTFGQGTKLQITRTVAAPSVFIFPPSDEQLKSGTASVVCLLNNFYPREAKVQWKVDNALQSGNSQESVTEQDSKDSTYSLSSTLTLSKADYEKHKVYACEVTHQGLSSPVTKSFNRGECSGSGSGGGGGSGGGGSGGGGSDVQLQESGPSLVKPSQSLSLTCTVTGYSITSDFAWNWIRQFPGNKLEWMGYISYSGNTRYNPSLKSRISITRDTSKNQFFLQLNSVTIEDTATYYCVTAGRGFPYWGQGTLVTVSAGGGGSGGGGSGGGGSDILMTQSPSSMSVSLGDTVSITCHSSQDINSNIGWLQQRPGKSFKGLIYHGTNLDDEVPSRFSGSGSGADYSLTISSLESEDFADYYCVQYAQFPWTFGGGTKLEIK
B14: SI-95X30 (antibody)
chain 1: not shown
chain 2: DIQMTQSPSSLSASVGDRVTITCRSSQNIVHSNGNTYLDWYQQTPGKAPKLLIYKVSNRFSGVPSRFSGSGSGTDFTFTISSLQPEDIATYYCFQYSHVPWTFGQGTKLQITRTVAAPSVFIFPPSDEQLKSGTASVVCLLNNFYPREAKVQWKVDNALQSGNSQESVTEQDSKDSTYSLSSTLTLSKADYEKHKVYACEVTHQGLSSPVTKSFNRGECGGGGSGSGSGGGGGSGGGGSGGGGSDVQLQESGPSLVKPSQSLSLTCTVTGYSITSDFAWNWIRQFPGNKLEWMGYISYSGNTRYNPSLKSRISITRDTSKNQFFLQLNSVTIEDTATYYCVTAGRGFPYWGQGTLVTVSAGGGGSGGGGSGGGGSDILMTQSPSSMSVSLGDTVSITCHSSQDINSNIGWLQQRPGKSFKGLIYHGTNLDDEVPSRFSGSGSGADYSLTISSLESEDFADYYCVQYAQFPWTFGGGTKLEIK

For 14 molecules, Kd results are on record in patent publication US20260337278 (published 2026).

By Kd is commonly meant the equilibrium constant for the complex coming apart. The low end stands for higher affinity, the high end for lower affinity.

For one assay, the target named is EGFR (wild-type, His-tagged or biotinylated) (human, UniProt P00533). Kind of assay: BLI. A general note: Biolayer interferometry detects binding as a change in optical thickness at a sensor tip.
Molecule B1 yielded a Kd of 6.17 nM.

The molecule B2 yielded a Kd of 9.35 nM.

With B3, the Kd was 7.56 nM. This Kd and that of the molecule before are within 1.5-fold of each other.

As to B4, binding was put at a Kd of 4.17 nM.

Take B5: the Kd was 4.73 nM. The Kd values of the last two molecules are within 1.5-fold of each other.

The molecule B6 came in with a Kd of 5.56 nM.

In turn, B7 gave a Kd of 13.4 nM.

Turning to B8, the affinity, expressed as Kd, was 0.68 nM.

B9 showed a Kd of 0.686 nM.

Molecule B10 registered a dissociation constant Kd of 10.5 nM.

Regarding B11, binding was put at a Kd of 10.7 nM.

Regarding B12, the Kd is 7.94 nM.

Molecule B13 returned a dissociation constant (Kd) of 10.1 nM.

B14 came in with an equilibrium dissociation constant (Kd) of 8.84 nM.

The target in another assay is EGFRvIII (human, UniProt P00533). Kind of assay: BLI.
Molecule B1 displayed a Kd of 1.45 nM.

B2: the Kd amounted to 0.281 nM.

The molecule B3 showed a Kd of 0.579 nM.

For B4, the Kd was 0.593 nM.

For the molecule B5, binding was characterised by a dissociation constant (Kd) of 0.839 nM.

In turn, B6 came in with a Kd of 0.654 nM.

In the case of B7, binding was characterised by a dissociation constant (Kd) of 1.21 nM.

As to B8, the Kd amounted to 0.375 nM.

For B9, binding was characterised by a dissociation constant (Kd) of 0.628 nM.

B10 gave a Kd of 1.08 nM.

Regarding B11, the affinity, expressed as Kd, was 0.507 nM.

B12 gave a Kd of 1.45 nM.

For B13, the affinity, expressed as Kd, was 1.12 nM.

Regarding B14, the dissociation constant Kd came to 1.24 nM.
